From US20160024208A1 (Regeneron, published 2016) come the findings set out here.

Positions count from the first letter of the chain named.

The target in experiment [1] is T1, full-length human Nav1.7 fused at its N-terminus to GFP, expressed in HEK293 cells (human, UniProt Q15858 1-1988). Put plainly: cell-based or functional assay.
Experiment [2] deals with T2, N-Term Biotin Nav1.7 (3-1) peptide, mouse (mouse, not fully specified; N-terminal biotin attached via a G4S linker).
T2 construct: Synthetic peptide; also called Mouse Nav1.7 3-1 N-term biotin
T2 peptide: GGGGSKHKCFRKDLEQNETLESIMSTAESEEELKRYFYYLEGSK
Put plainly: ELISA on coated peptide, antibody 1 ug/ml, OD450 grade. In short, it runs like this: (§1)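 Binding graded from absorbance at OD450 for antibodies applied at 1 μg/ml (− below 0.2, + 0.2–1, ++ 1–2, +++ 2–4; NT not tested); antibodies were also run at 0.1 μg/mL. Biotin-peptides at 0.4 μg/mL on avidin-coated plates, other peptides at 4 μg/mL; 1 h RT binding; HRP anti-IgG/TMB detection.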

Experiment [3] has as its target T3, N-Term Biotin-Nav1.7 (3-1) peptide, human (human, not fully specified; N-terminal biotin attached via a G4S linker).
T3 construct: ELISA peptide
T3 peptide: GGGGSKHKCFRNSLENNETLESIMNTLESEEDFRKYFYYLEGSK
Described as above. In short, it runs like this:
as §1

Experiment [4] has as its target T4, Native Nav1.7 (3-1) peptide, rat (rat).
T4 construct: Synthetic peptide; also called Rat Nav1.7 3-1 native
T4 peptide: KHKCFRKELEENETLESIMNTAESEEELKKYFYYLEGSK
Described as above. In short, it runs like this:
as §1

Experiment [5] concerns the target T5, N-Term Biotin Nav1.7 (3-1) peptide, mulatta (mulatta (monkey), not fully specified; N-terminal biotin attached via a G4S linker).
T5 construct: Synthetic peptide; also called Mulatta Nav1.7 3-1 N-term biotin; monkey
T5 peptide: T3 peptide with F10V, R11Q, E15V
The description is as above. In short, it runs like this:
as §1

The target of experiment [6] is T1, full-length human Nav1.7 fused at its …. Put plainly: flow cytometry on Nav1.7-GFP-HEK293, antibody 3.3 nM. As to the method: The specificity of binding of anti-Naᵥ 1.7 human antibodies to full-length Naᵥ 1.7 expressed in HEK293 cells was determined by peptide competition experiments using flow cytometry.
HEK293 cells stably-transfected with full-length Naᵥ 1.7 fused at its N-terminus to GFP (Naᵥ 1.7-GFP-HEK293) were used for this study. Antibody binding to the transfected cells overexpressing Naᵥ 1.7 was compared to binding in the presence of excess peptide and to binding to the parental HEK293 cell line. To perform the binding experiments, adherent cells were collected using 1 mM EDTA in PBS, washed and re-suspended in cold PBS containing 5% FBS. For each binding experiment the anti-Naᵥ 1.7 antibody at a final concentration of 3.3 nM (in PBS/5% FBS) was added to cells either directly or after incubating for 10 min on ice with a 1000-fold molar excess (3.3 uM final concentration in PBS/5% FBS) of synthetic peptide with sequence corresponding to the loop specificity of the antibody. The antibodies designated as H4H391P, H4H443B, H4H448B, and H1M797N were preincubated as described above with a synthetic peptide corresponding to EC loop 3-1 (amino acid residues 269-338 of SEQ ID NO: 670), whereas the antibodies designated as H4H468P and H1 M852N were preincubated with a synthetic peptide corresponding to EC loop 3-3 (amino acid residues 1333-1382 of SEQ ID NO: 670). The antibody or antibody-peptide mixture was then allowed to incubate with cells for 20 min on ice, followed by addition of 500 uL of cold PBS/5% FBS. Cells were collected by centrifugation, resuspended in 500 uL of cold PBS/5% FBS, and then secondary antibody matched to the antibody isotype (either anti-human-Fc conjugated to Cyanine 5 or anti-mouse-Fc conjugated to allophyococyanin) was added. Binding was detected on the flow cytometry instrument and analyzed as percent binding using the instrument software. For FACS analysis appropriate gating was applied so that only healthy, live cells were counted. Background staining of secondary antibodies alone to Naᵥ 1.7-GFP-HEK293 cells was tested and recorded for all samples, and results ranged between 1-2% binding.
Background: Flow cytometry measures light scatter and fluorescence of single cells or particles in a stream.

B1: H1H1006B (antibody, V domains shown)
VH: EVQLVESGPGLVKSSETLSLKCTVSGGSISSSGYYWGWIRQPPGKGLEWIGSIHRSGSTFYNPSLKSRVTISVDTSKSQFSLRLTSVTAADTSVYFCGRHGRDYYYGMDVWGQGTTVTVSS
VL: DIQMTQSPSSVSASVGDRVTITCRSSQDINNWLVWYQQKPGKAPKVLIYGASRLQSGVPSRFSGSGSGTDFTLTISSLQPEDFATYYCQQANSFPLTFGGGTKVEIKR
notes: Fully human antibody; also called H4H1006B-1
Regarding B1, the “Current blocking (Average % inhibition), IonWorks Quattro, 223 nM antibody” value (“Current blocking (Average % inhibition)” below) in experiment [1] amounted to 64%. The OD450 in experiment [2], in experiment [3], in experiment [4] and in experiment [5] was 2 to 4 od throughout.

B2: H1M797N (antibody, V domains shown)
VH: QVQLVESGGGVVQPGRSLRLSCAASGFTFSSYGMHWVRQAPGKGLEWVAVISYDGNNKHFADSVKGRFTISRDNSKNTLNLQMNSLRAEDRAVYYCARGASGFVLDIWGQGTMVTVSS
VL: DIVMTQTPLSSPVTLGQPASISCRSSQSLVRSDGNTYLSWLQQRPGQPPRLLIYKISNRFSGVPDRFSGSGAGTDFTLKISRVEAEDVGIYFCMQTTQFPFTFGPGTKVDIK
For B2, the “% Binding Nav1.7 (Stable Line)” value in experiment [6] turned out to be 45.4%. Further, the “Current blocking (Average % inhibition)” value in experiment [1] is -31%. Besides, the OD450 in experiment [2], in experiment [3], in experiment [4] and in experiment [5] was 2 to 4 od each time.

B3: H1M801N (antibody, V domains shown)
VH: QVQVVESGGGVVQPGRSLRLSCAASGFTFSNYGMHWVRQAPGKGLEWVTVISYDGSNKNYADSVKGRFTISRDNSKNTLYLQMNSLRAEDTAMYYCARGGSGFAFDIWGQGTMVTVSS
VL: B2 VL with E86D, I90V, F92Y
notes: also called H1H801N
In the case of B3, the “% Binding Nav1.7 (Stable Line)” value in experiment [6] is 49.5%. Besides, the OD450 fell in the range of 1 to 2 od in experiment [2], 1 to 2 od in experiment [3], 1 to 2 od in experiment [4] and 2 to 4 od in experiment [5].

B4: H1M836N (antibody, V domains shown)
VH: QVQLVESGGGVVQPGRSLRLSCAASGFTFSSYGMHWVRQAPGKGLEWVAVISYDGNNKYYADSVKGRFTISRDNSKNTLYLQMNSLRAEDTAVYYCAKGSAGYALDYWGQGTLVTVSS
VL: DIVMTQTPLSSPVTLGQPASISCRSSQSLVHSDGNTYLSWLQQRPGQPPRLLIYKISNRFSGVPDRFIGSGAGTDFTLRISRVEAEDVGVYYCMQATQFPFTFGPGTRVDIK
Consider B4, for which, in experiment [6], the “% Binding Nav1.7 (Stable Line)” value came to 68.9%. Besides, the OD450 in experiment [3] was in the range of 2 to 4 od; in experiment [4], 1 to 2 od; in experiment [5] it was 2 to 4 od.

B5: H1M879N (antibody, V domains shown)
VH: EVQLVESGGGLVKPGGSLRLSCAASGFTFSSYTIHWVRQAPGKGLEWVSSISSSSSYIYYVDSVKGRFTISRDNAKNSVYLQMNSLRAEDTAVYYCATSSITARGYFDYWGQGTLVTVSS
VL: EIVLTQSPATLSLSPGERVTLSCRASQSVSSYLAWYQQKPGQAPRLLIYDASNRATGIPARFSGSGSGTDFTLTISSLEPEDFAVYYCQQRNIWPPTFGQGTKVEIK
notes: Hybridoma-derived
As to B5, the “% Binding Nav1.7 (Stable Line)” value in experiment [6] was 63%. For the same molecule, the OD450 in experiment [3] and in experiment [5] was 2 to 4 od in each case.

B6: H1M852N (antibody, V domains shown)
VH: QVQLVESGGGVVQPGRSLTLSCAASGFMFNRFGMHWVRQAPGKGLDWVAVIWYDGSNKYYADSVKGRFTISRDNSKNTLYLQVNSLRAEDTAVYYCAREGTPHYYDSSGLDYWGQGTLVTVSS
VL: AIQMTQSPSSLSAYVGDRVTITCRASQDIRNDLGWYQQKPGKAPNLLIYDISSLQSGVPSRFSGSGSGTDFTLTISSLQPEDFATYYCLQDYNYPLTFGGGTKVEIK
notes: constant region may differ; also called H4H852N
For the molecule B6, in experiment [6], the “% Binding Nav1.7 (Stable Line)” value worked out at 64.1%. The “Current blocking (Average % inhibition)” value in experiment [1] stood at 7%.
